Results as given in patent publication US20020115596A1 (MERK, published 2002).
Non-standard residues stand in square brackets, D forms with d. Primed or numbered codes have the meaning given here. PEG(2)″ = polyethylene glycol containing substituent with 2 ethyleneoxy subunits; Hyp = O=C(O)[C@@H]1C[C@@H](O)CN1; Chg = N[C@H](C(=O)O)C1CCCCC1; ΔPro = O=C(O)[C@@H]1C=CCN1

molecular target: free prostate specific antigen (PSA) (human, UniProt P07288 25-261); assay: cell-based or functional assay

| Time to 50% Substrate Cleavage by PSA (Min); the cell gives the percent cleaved at 3 hours | Binder |
| --- | --- |
| 28 % cleaved at 3 hours | Ac-[ΔPro]AS[Chg]QSL-OH (SMILES CC(=O)N1CC=C[C@H]1C(=O)N[C@@H](C)C(=O)N[C@@H](CO)C(=O)N[C@H](C(=O)N[C@@H](CCC(N)=O)C(=O)N[C@@H](CO)C(=O)N[C@@H](CC(C)C)C(=O)O)C1CCCCC1) [Ac-(Dehydro-Pro)-ASChgQ-SL-acid] |
| 0 % cleaved at 3 hours | Ac-[Hyp][Chg]QSSSL-OH (SMILES CC(=O)N1C[C@H](O)C[C@H]1C(=O)N[C@H](C(=O)N[C@@H](CCC(N)=O)C(=O)N[C@@H](CO)C(=O)N[C@@H](CO)C(=O)N[C@@H](CO)C(=O)N[C@@H](CC(C)C)C(=O)O)C1CCCCC1) [Ac-(4-trans-L-Hyp)ChgQ-SSSL-acid] |
| 44 % cleaved at 3 hours | {PEG(2)″}-[Hyp]AS[Chg]QSL-OH [PEG(2)-(4-trans-L-Hyp)-ASChgQ-SL-acid] |
| 16 % cleaved at 3 hours | XASXQSX (N-terminal acetyl; 4-trans-L-Hyp (trans-4-hydroxy-L-proline) at position 1 (written X); Chg (cyclohexylglycine) at position 4 (written X); TIC (1,2,3,4-tetrahydro-3-isoquinoline carboxylic acid) at position 7 (written X); C-terminal free acid) [Ac-(4-trans-L-Hyp)ASChgQ-S(TIC)-acid] |
